# Experimental data reported in PMC5698441 (Nature Communications, 2017).
# B1: 20-mer AKAP79 (77–96) V86A (peptide)
# peptide: GAWASLKRLATRRKRSESSK
# notes: AKAP79 residues 77-96 with V86A; also called V86A peptide; source: synthetic peptide (Sigma PEPscreen)
# Target: T1, biotinylated CaM (UniProt P0DP23 1-149, biotin (EZ link NHS Biotin, two-fold molar excess))
# T1 construct: calmodulin, biotin-labelled; also called biotin-CaM; biotin-labeled CaM; source: purified CaM labelled with EZ link NHS Biotin, separated from free biotin by SEC
# Assay: AlphaScreen or HTRF; competition: WT or mutant 20-mer peptides AKAP79 77-96 added to biotin-CaM (10 nM) and GST-AKAP79 (1-153); emission relative to untreated; peptide concentration not given
# Conditions: both partners purified
binder,measurement,value
B1,alphascreen emission relative to untreated samples,0.17 ± 0.04 relative to untreated
